Like-named read-outs stand apart in the source and are kept apart here.
Columns and labels:
[1] = biological target: T1, BR P.1 variant RBD (R319-F541 with K417T, E484K, N501Y), C-terminal 6-His (SARS-CoV-2, UniProt P0DTC2 319-541); assay: sandwich dipstick, capture Ab7, detector Ab4-AuNP
[2] = biological target: T2, SA variant RBD (R319-F541 with K417N, E484K, N501Y), C-terminal 6-His (SARS-CoV-2, UniProt P0DTC2 319-541); assay: sandwich dipstick, capture Ab7, detector Ab4-AuNP
[3] = biological target: T3, UK variant RBD (R319-F541 with N501Y), C-terminal 6-His (SARS-CoV-2, UniProt P0DTC2 319-541); assay: sandwich dipstick, capture Ab7, detector Ab4-AuNP
[4] = biological target: T4, recombinant SARS-CoV-2 spike S1 RBD (R319-F541), C-terminal 6-His (SARS-CoV-2, UniProt P0DTC2 319-541); assay: sandwich dipstick, capture Ab7, detector Ab4-AuNP
[5] = biological target: T5, IN v2 variant RBD (R319-F541 with L452R, T478K) (SARS-CoV-2, UniProt P0DTC2 319-541); assay: dipstick, adsorbed RBD spots, Ab 10 µg/mL, GAM-AuNP
[6] = biological target: BR P.2 variant RBD (R319-F541 with E484K) (SARS-CoV-2, UniProt P0DTC2 319-541); assay: as above
[7] = biological target: L452R RBD (R319-F541 with L452R) (SARS-CoV-2, UniProt P0DTC2 319-541); assay: as above
[8] = biological target: IN v1 variant RBD (R319-F541 with L452R, E484Q) (SARS-CoV-2, UniProt P0DTC2 319-541); assay: as above
[9] = biological target: T1, BR P.1 variant RBD (R319-F541 with …); assay: flow cytometry, blocking of binding to hACE-2 cells
[10] = biological target: T5, IN v2 variant RBD (R319-F541 with …); assay: as above
[11] = biological target: rSARS2-B.1.617.2 S aa16-1211 10+4x aa mut., C-His (SARS-CoV-2, UniProt P0DTC2 16-1211); assay: as above
[12] = biological target: rSARS2-B.1.1.7 S aa16-1211 2x aa mut., C-His (SARS-CoV-2, UniProt P0DTC2 16-1211); assay: as above
[13] = biological target: rSARS2 RBD aa319-541, N439K, C-His (SARS-CoV-2, UniProt P0DTC2 319-541); assay: as above
[14] = biological target: rSARS2-B.1.1.7 S aa16-1211 4x aa mut., C-His (SARS-CoV-2, UniProt P0DTC2 16-1211); assay: as above
[15] = biological target: T1, BR P.1 variant RBD (R319-F541 with …); assay: lateral flow NC50, RBD-AuNP vs immobilised ACE2
[16] = biological target: T2, SA variant RBD (R319-F541 with K417N, …); assay: lateral flow NC50, RBD-AuNP vs immobilised ACE2
[17] = biological target: T3, UK variant RBD (R319-F541 with N501Y), …; assay: lateral flow NC50, RBD-AuNP vs immobilised ACE2
[18] = biological target: T4, recombinant SARS-CoV-2 spike S1 RBD …; assay: lateral flow NC50, RBD-AuNP vs immobilised ACE2
[19] = biological target: K417E RBD (R319-F541 with K417E) (SARS-CoV-2, UniProt P0DTC2 319-541); assay: lateral flow NC50, RBD-AuNP vs immobilised ACE2
[20] = biological target: T478K RBD (R319-F541 with T478K) (SARS-CoV-2, UniProt P0DTC2 319-541); assay: lateral flow NC50, RBD-AuNP vs immobilised ACE2
[21] = biological target: T3, UK variant RBD (R319-F541 with N501Y), …; assay: lateral flow NC50, RBD-AuNP vs immobilised ACE2; remark: listed apart in the source
[22] = biological target: T4, recombinant SARS-CoV-2 spike S1 RBD …; assay: lateral flow NC50, RBD-AuNP vs immobilised ACE2; remark: listed apart in the source
[23] = biological target: T1, BR P.1 variant RBD (R319-F541 with …); assay: sandwich dipstick, detector Ab5-AuNP
[24] = biological target: T2, SA variant RBD (R319-F541 with K417N, …); assay: sandwich dipstick, detector Ab5-AuNP
[25] = biological target: T3, UK variant RBD (R319-F541 with N501Y), …; assay: sandwich dipstick, detector Ab5-AuNP
[26] = biological target: T4, recombinant SARS-CoV-2 spike S1 RBD …; assay: sandwich dipstick, detector Ab5-AuNP
[27] = biological target: T4, recombinant SARS-CoV-2 spike S1 RBD …; assay: flow cytometry, blocking of binding to hACE-2 cells
[28] = biological target: T4, recombinant SARS-CoV-2 spike S1 RBD …; assay: as above; remark: listed apart in the source

B1: 1035240 (antibody, V domains shown)
VH: QVQLQQSGAELARPGASVKMSCKASGYTFTTYTMHWVKQRPGQGLEWIGYINPSSGYTNYNQKFKDKATLTADTSSSTAYMQLSSLTSEDSAVYYCARRNPLYAMDYWGQGTSVTVSS
VL: DIKMTQSPSSMYASLGERVTITCKASQDINSYLNWFQQKPGKSPKTLIYRANRLVDGVPSRFSGSGSGQDYSLTISSLEYEDMGIYYCLQYDEFPYTFGGGTKLEIK
detection sensitivity [1]: 0.1 µg/mL
detection sensitivity [2]: 0.1 µg/mL
detection sensitivity [3]: 0.01 µg/mL
detection sensitivity [4]: 0.01 µg/mL
binding result [5]: no binding (tested: 10 µg/mL)
binding result [6]: no binding (tested: 10 µg/mL)
binding result [7]: no binding (tested: 10 µg/mL)
binding result [8]: no binding (tested: 10 µg/mL)
percent blocking [9]: 0%
percent blocking [10]: 0.7%
percent blocking [11]: 0%
percent blocking [12]: 91.2%
percent blocking [13]: 49%
percent blocking [14]: 78.6%
IC50 [15]: > 45 µg/mL
IC50 [16]: > 45 µg/mL
IC50 [17]: 0.86 µg/mL
IC50 [18]: 0.34 µg/mL
IC50 [19]: 0.33 µg/mL
IC50 [20]: 0.61 µg/mL
IC50 [21]: 0.86 µg/mL
IC50 [22]: 0.34 µg/mL
detection sensitivity [23]: 0.001 µg/mL
detection sensitivity [24]: 0.001 µg/mL
detection sensitivity [25]: 0.001 µg/mL
detection sensitivity [26]: 0.001 µg/mL
percent blocking [27]: 99.1%
percent blocking [28]: 99.1%

From patent US20230408517A1 (BIO TECHNE, published 2023)
